Assay results from the PETadex activity labels (doi:10.1038/s41467-023-40233-w).

substrate: pcPET (post-consumer); test: Proxy for plastic degradation [Released monomer concentration (HPLC/LC-MS) (TPA+MHET+BHET)]; conditions: pH 9; 40 °C; 24 h

Row | Protein | Proxy for plastic degradation
1 | unnamed (protein) MLSFLRSTGRPERRRASLPALLLFTAALVASGLTAAPAAQAADNPYQRGPDPTNASIEAATGPFAVGTQPIVGASGFGGGQIYYPTDTSQTYGAVVIVPGFISVWAQLNWLGPRLASQGFVVIGIETSTITDLPDPRGDQALAALDWATTRSPVASRIDRTRLAAAGWSMGGGGLRRAACQRPSLKAIVGMAPWNGEKNWSCVTVPTLFFGGSSDAVASPNDHAKPFYNSITRAEKDYIELCNADHFFPTSANTTMAKYFISWLKRWVDNDTRYTQFLCPGPSTGLFAPVCASMNTCPF | 1200 µM
2 | unnamed (protein) MLSFLRSTGRPERRRASLPALLLFTAALVASGLTAAPAAQAADNPYQRGPDPTNASIEAATGPFAVGTQPIVGASGFGGGQIYYPTDTSQTYGAVVIVPGFISVWAQLAWLGPRLASQGFVVIGIETSVITDLPDPRGDQALAALDWATTRSPVASRIDRTRLAAAGWSMGGGGLRRAALQRPSLKAIVGMAPWNGERNWSAVTVPTLFFGGSSDAVASPNDHAKPFYNSITRAEKDYIELRNADHFFPTSANTTMAKYFISWLKRWVDNDTRYTQFLCPGPSTGLFAPVSASMNTCPF | 720 µM
3 | unnamed (protein) MLSFLRSTGRPERRRASLPALLLFTAALVASGLTAAPAAQAADNPYQRGPDPTNASIEAATGPFAVGTQPIVGASGFGGGQIYYPTDTSQTYGAVVIVPGFISVWAQLNWLGPRLASQGFVVIGIETSVITDLPDPRGDQALAALDWATTRSPVASRIDRTRLAAAGWSMGGGGLRRAALQRPSLKAIVGMAPWNGERNWSAVTVPTLFFGGSSDAVASPNDHAKPFYNSITRAEKDYIELRNADHFFPTSANTTMAKYFISWLKRWVDNDTRYRQFLCPGPSTGLFAPVSASMNTCPF | 270 µM
4 | unnamed (protein) MLSFLRSTGRPERRRASLPALLLFTAALVASGLTAAPAAQAADNPYQRGPDPTNASIEAATGPFAVGTQPIVGASGFGGGQIYYPTDTSQTYGAVVIVPGFISVWAQLNWLGPRLASQGFVVIGIETSVITDLPDPRGDQALAALDWATTRSPVRSRIDRTRLAAAGWSMGGGGLRRAACQRPSLKAIVGMAPWNGERNWSCVTVPTLFFGGSSDAVASPNDHAKPFYNSITRAEKDYIELCNADHFFPTSANTTMAKYFISWLKRWVDNDTRYTQFLCPGPSTGLFAPVCASMNTCPF | 948 µM
5 | unnamed (protein) MLSFLRSTGRPERRRASLPALLLFTAALVASGLTAAPAAQAADNPYQRGPDPTNASIEAATGPFAVGTQPIVGASGFGGGQIYYPTDTSQTYGAVVIVPGFISVWAQLNWLGPRLASQGFVVIGIETSVITDLPDPRGDQALAALDWATTRSPVASRIDRTRLAAAGWSMGGGGLRRAALQRPSLKAIVGMAPWNGEKNWSAVTVPTLFFGGSSDAVASPNDHAKPFYNSITRAEKDYIELRNADHFFPTSANTTMAKYFISWLKRWVDNDTRYTQFLCPGPSTGLFAPVSASMNTCPF | 950 µM
6 | unnamed (protein) MLSFLRSTGRPERRRASLPALLLFTAALVASGLTAAPAAQAADNPYQRGPDPTNASIEAATGPFAVGTQPIVGASGFGGGQIYYPTDTSQTYGAVVIVPGFISVWAQLNWLGPRLASQGFVVIGIETSVITDLPDPRGDQALAALDWATTRSPVASRIDRTRLAAAGWSMGGGGLRRAALQRPSLKAIVGMTPWNGERNWSAVTVPTLFFGGSSDAVASPNDHAKPFYNSITRAEKDYIELRNADHFFPTSANTTMAKYFISWLKRWVDNDTRYTQFLCPGPSTGLFAPVSASMNTCPF | 495 µM
7 | unnamed (protein) MLSFLRSTGRPERRRASLPALLLFTAALVASGLTAAPAAQAADNPYQRGPDPTNASIEAATGPFAVGTQPIVGASGFGGGQIYYPRDTSQTYGAVVIVPGFISVWAQLNWLGPRLASQGFVVIGIETSVITDLPDPRGDQALAALDWATTRSPVASRIDRTRLAAAGWSMGGGGLRRAALQRPSLKAIVGMAPWNGERNWSAVTVPTLFFGGSSDAVASPNDHAKPFYNSITRAEKDYIELRNADHFFPTSANTTMAKYFISWLKRWVDNDTRYTQFLCPGPSTGLFAPVSASMNTCPF | 485 µM
8 | unnamed (protein) MLSFLRSTGRPERRRASLPALLLFTAALVASGLTAAPAAQAADNPYQRGPDPTNASIEAATGPFAVGTQPIVGASGFGGGQIYYPTDTSQTYGAVVIVPGFISVWAQLNWLGPRLASQGFVVIGIETSVITDLPDPRGDQALAALDWATTRSPVRSRIDRTRLAAAGWSMGGGGLRRAALQRPSLKAIVGMAPWNGERNWSAVTVPTLFFGGSSDAVASPNDHAKPFYNSITRAEKDYIELRNADHFFPTSANTTMAKYFISWLKRWVDNDTRYTQFLCPGPSTGLFAPVSASMNTCPF | 870 µM
9 | unnamed (protein) MLSFLRSTGRPERRRASLPALLLFTAALVASGLTAAPAAQAADNPYQRGPDPTNASIEAATGPFAVGTQPIVGASGFGGGQIYYPTDTSQTYGAVVIVPGFISVWAQLNWLGPRLASQGFVVIGIETSVITDLPDPRGDQALAALDWATTRSPVASRIDRTRLAAAGWSMGGGGLRRAALQRPSLKAIVGMAPWNGERNWSAVTVPTLFFGGSSDAVASPNDHAKPFYNSITRAEKDYIELCNADHFFPTSANTTMAKYFISWLKRWVDNDTRYTQFLCPGPSTGLFAPVCASMNTCPF | 890 µM
10 | unnamed (protein) MLSFLRSTGRPERRRASLPALLLFTAALVASGLTAAPAAQAADNPYQRGPDPTNASIEAATGPFAVGTQPIVGASGFGGGQIYYPTDTSQTYGAVVIVPGFISVWAQLNWLGPRLASQGFVVIGIETSVITDLPDPRGDQALAALDWATTRSPVASAIDRTRLAAAGWSMGGGGLRRAALQRPSLKAIVGMAPWNGERNWSAVTVPTLFFGGSSDAVASPNDHAKPFYNSITRAEKDYIELRNADHFFPTSANTTMAKYFISWLKRWVDNDTRYTQFLCPGPSTGLFAPVSASMNTCPF | 225 µM

same assay, conditions: pH 9; 60 °C; 6 h

Row | Protein | Proxy for plastic degradation
11 | unnamed (protein) MLSFLRSTGRPERRRASLPALLLFTAALVASGLTAAPAAQAADNPYQRGPDPTNASIEAATGPFAVGTQPIVGASGFGGGQIYYPTDTSQTYGAVVIVPGFISVWAQLNWLGPRLASQGFVVIGIETSTITDLPDPRGDQALAALDWATTRSPVASRIDRTRLAAAGWSMGGGGLRRAACQRPSLKAIVGMAPWNGEKNWSCVTVPTLFFGGSSDAVASPNDHAKPFYNSITRAEKDYIELCNADHFFPTSANTTMAKYFISWLKRWVDNDTRYTQFLCPGPSTGLFAPVCASMNTCPF | 1020 µM
12 | unnamed (protein) MLSFLRSTGRPERRRASLPALLLFTAALVASGLTAAPAAQAADNPYQRGPDPTNASIEAATGPFAVGTQPIVGASGFGGGQIYYPTDTSQTYGAVVIVPGFISVWAQLNWLGPRLASQGFVVIGIETSVITDLPDPRGDQALAALDWATTRSPVRSRIDRTRLAAAGWSMGGGGLRRAACQRPSLKAIVGMAPWNGERNWSCVTVPTLFFGGSSDAVASPNDHAKPFYNSITRAEKDYIELCNADHFFPTSANTTMAKYFISWLKRWVDNDTRYTQFLCPGPSTGLFAPVCASMNTCPF | 360 µM
13 | unnamed (protein) MLSFLRSTGRPERRRASLPALLLFTAALVASGLTAAPAAQAADNPYQRGPDPTNASIEAATGPFAVGTQPIVGASGFGGGQIYYPTDTSQTYGAVVIVPGFISVWAQLNWLGPRLASQGFVVIGIETSVITDLPDPRGDQALAALDWATTRSPVASRIDRTRLAAAGWSMGGGGLRRAALQRPSLKAIVGMAPWNGERNWSAVTVPTLFFGGSSDAVASPNDHAKPFYNSITRAEKDYIELRNADHFFPTSANTTMAKYFISWLKRWVDNDTRYTQFLCPGPSTGLFAPVSASMNTCPF | 60 µM
